From article PMC5735978, “PAK6 Phosphorylates 14-3-3γ to Regulate Steady State Phosphorylation of LRRK2” (Frontiers in Molecular Neuroscience, 2017) come the findings set out here.

For data set [1], the target named is T1, 3xFlag-PAK6 wild-type (UniProt Q9NQU5 1-681, autophosphorylated; phospho-Ser560 monitored by western blot).
T1 construct: construct as described in Civiero et al., 2015; source: HEK293T, transfected; in lysate (immunoprecipitation) and immunopurified on anti-Flag resin (pull-down, overlay)
Description: far-Western, overlay or dot blot; immunopurified Flag-tagged PAK6 or LRRK2 separated by SDS-PAGE and blotted onto nitrocellulose; incubated with purified His-14-3-3s at 1 μg/ml in 5% BSA in TBS-T overnight at 4°C; anti-His detection. The note with it: both partners purified.

The next data set deals with T2, 3xFlag-PAK6 S531N (UniProt Q9NQU5 1-681, S531N, autophosphorylated; phospho-Ser560 monitored by western blot).
T2 construct: PAK6, constitutively active variant; construct as described in Civiero et al., 2015; also called active variant S531N; source: HEK293T, transfected; in lysate (immunoprecipitation) and immunopurified (overlay)
The data set is described as above. Particulars: both partners purified.

The target in data set [2] is T1, 3xFlag-PAK6 wild-type. Description: pull-down; Flag-purified PAK6 bound to anti-Flag resin incubated for 2 h with purified His-14-3-3 isoforms (1 μM); bound 14-3-3s revealed with anti-His antibody. Particulars: both partners purified.
Data set [3] deals with the molecule itself. Nature of the data set: native gel or EMSA; blue native gel (4-16%) of purified His-14-3-3γ wild-type, S59D and T145D; 5 μg of protein loaded; Coomassie staining. Background: In EMSA bound probe runs differently from free probe, usually more slowly.

Numbering of substitutions follows the chain as printed. Names and notes keep the numbering of the source.

T1 sequence (Q9NQU5 whole entry): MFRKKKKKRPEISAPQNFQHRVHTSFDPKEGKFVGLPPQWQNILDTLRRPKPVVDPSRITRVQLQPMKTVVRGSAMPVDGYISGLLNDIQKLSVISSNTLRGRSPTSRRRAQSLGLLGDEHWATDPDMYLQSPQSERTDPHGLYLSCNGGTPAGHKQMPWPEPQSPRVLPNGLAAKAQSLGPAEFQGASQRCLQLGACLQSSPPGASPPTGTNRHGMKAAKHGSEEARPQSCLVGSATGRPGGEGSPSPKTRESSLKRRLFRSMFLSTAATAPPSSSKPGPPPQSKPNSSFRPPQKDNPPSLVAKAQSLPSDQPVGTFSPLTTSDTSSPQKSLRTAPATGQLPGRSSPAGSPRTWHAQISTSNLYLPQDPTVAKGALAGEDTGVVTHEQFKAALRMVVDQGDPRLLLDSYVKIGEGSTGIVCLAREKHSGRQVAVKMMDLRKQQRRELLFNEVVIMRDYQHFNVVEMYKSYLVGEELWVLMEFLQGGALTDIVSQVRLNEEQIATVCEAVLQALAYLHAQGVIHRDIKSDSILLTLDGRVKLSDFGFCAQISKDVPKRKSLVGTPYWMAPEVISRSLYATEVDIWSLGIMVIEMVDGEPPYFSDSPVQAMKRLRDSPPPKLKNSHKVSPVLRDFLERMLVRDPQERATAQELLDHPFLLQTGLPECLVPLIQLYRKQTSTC
T2 sequence (Q9NQU5 whole entry S531N): as the sequence (Q9NQU5 whole entry) above, with S531N counted along it

B1: 6xHis-14-3-3 zeta (natural protein, human, UniProt P63104 1-245, looked up)
chain: MDKNELVQKAKLAEQAERYDDMAACMKSVTEQGAELSNEERNLLSVAYKNVVGARRSSWRVVSSIEQKTEGAEKKQQMAREYREKIETELRDICNDVLSLLEKFLIPNASQAESKVFYLKMKGDYYRYLAEVAAGDDKKGIVDQSQQAYQEAFEISKKEMQPTHPIRLGLALNFSVFYYEILNSPEKACSLAKTAFDEAIAELDTLSEESYKDSTLIMQLLRDNLTLWTSDTQGDEAEAGEGGEN
notes: 14-3-3 protein zeta, cloned in pET28a(+) by PCR from a mammalian expression plasmid (Prof. Dario Alessi); also called His-14-3-3ζ; source: E. coli BL21(DE3), purified (IMAC, ProBond resin; PD10 desalting); not shown: 6xHis, N-terminal, kept
As for B1, the binding result with 3xFlag-PAK6 wild-type [1] was “binds”.

B2: 6xHis-14-3-3 theta (natural protein, human, UniProt P27348 1-245, looked up)
chain: MEKTELIQKAKLAEQAERYDDMATCMKAVTEQGAELSNEERNLLSVAYKNVVGGRRSAWRVISSIEQKTDTSDKKLQLIKDYREKVESELRSICTTVLELLDKYLIANATNPESKVFYLKMKGDYFRYLAEVACGDDRKQTIDNSQGAYQEAFDISKKEMQPTHPIRLGLALNFSVFYYEILNNPELACTLAKTAFDEAIAELDTLNEDSYKDSTLIMQLLRDNLTLWTSDSAGEECDAAEGAEN
notes: 14-3-3 protein theta, cloned in pET28a(+) by PCR from a mammalian expression plasmid (Prof. Dario Alessi); also called His-14-3-3θ; source: E. coli BL21(DE3), purified (IMAC, ProBond resin; PD10 desalting); not shown: 6xHis, N-terminal, kept
With B2, the binding result in the data set with 3xFlag-PAK6 wild-type [1] is “binds”.

B3: 6xHis-14-3-3γ wild-type (natural protein, human, UniProt P61981 1-247, looked up)
chain: MVDREQLVQKARLAEQAERYDDMAAAMKNVTELNEPLSNEERNLLSVAYKNVVGARRSSWRVISSIEQKTSADGNEKKIEMVRAYREKIEKELEAVCQDVLSLLDNYLIKNCSETQYESKVFYLKMKGDYYRYLAEVATGEKRATVVESSEKAYSEAHEISKEHMQPTHPIRLGLALNYSVFYYEIQNAPEQACHLAKTAFDDAIAELDTLNEDSYKDSTLIMQLLRDNLTLWTSDQQDDDGGEGNN
notes: 14-3-3 protein gamma, cloned in pET28a(+) by PCR from a mammalian expression plasmid (Prof. Dario Alessi); runs around the size of the dimer on blue native gels; also called recombinant 14-3-3γ; 14-3-3 gamma; source: E. coli BL21(DE3), purified (IMAC, ProBond resin; PD10 desalting); not shown: 6xHis, N-terminal, kept
Take B3: the “fold affinity against PAK6 wild-type” value in the data set with 3xFlag-PAK6 S531N is 2 fold. In the data set with 3xFlag-PAK6 wild-type [2], the binding result is “binds”.

B4: His-14-3-3γ T145D (natural protein, human, UniProt P61981 1-247, looked up)
chain: B3 chain with T145D
notes: 14-3-3 protein gamma, phosphomimetic mutant; also called S145D (as once printed); source: E. coli BL21(DE3), purified (IMAC); not shown: 6xHis, N-terminal, kept
Take B4: the binding result in data set [3] was “binds”.
